Measurements published in patent publication US20200024330A1.

Legend:
Test in all cases: cell-based or functional assay
[1] = target: HIV-1 Env of isolate MGRM-D-018 (clade D) (HIV-1)
[2] = target: HIV-1 MGRM-C-005 Env (HIV-1)
[3] = target: HIV-1 MGRM-A-008 envelope glycoprotein (Env) (HIV-1)
[4] = target: HIV-1 MGRM-A-010 envelope glycoprotein (Env) (HIV-1)
[5] = target: HIV-1 92UG037 envelope glycoprotein (Env) (HIV-1)
[6] = target: HIV-1 Env of isolate MGRM-D-029 (clade D) (HIV-1)
[7] = target: HIV-1 Env of isolate MGRM-D-028 (clade D) (HIV-1)
[8] = target: HIV-1 97ZA012 envelope glycoprotein (Env) on pseudovirus (HIV-1)
[9] = target: HIV-1 MGRM-C-014 Env (HIV-1)
[10] = target: HIV-1 MGRM-F1-015 Env (pseudovirus) (HIV-1)
[11] = target: HIV-1 Env of isolate MGRM-D-024 (clade D) (HIV-1)
[12] = target: HIV-1 93IN905 Env (HIV-1)
[13] = target: HIV-1 LAVI_C22 Env (HIV-1)
[14] = target: HIV-1 MGRM-F1-020 Env (pseudovirus) (HIV-1)
[15] = target: HIV-1 MGRM-F1-016 Env (pseudovirus) (HIV-1)
[16] = target: HIV-1 93RW029 envelope glycoprotein (Env) (HIV-1)
[17] = target: HIV-1 92RW020 envelope glycoprotein (Env) (HIV-1)
[18] = target: HIV-1 MGRM-A-004 envelope glycoprotein (Env) (HIV-1)
[19] = target: HIV-1 Env of isolate CAAN.A2 (HIV-1)
[20] = target: HIV-1 Env of isolate MGRM-Chronic-B-001 (HIV-1)
[21] = target: HIV-1 Env of isolate 92RW008 (HIV-1)
[22] = target: HIV-1 Env of isolate 92UG031 (HIV-1)
[23] = target: HIV-1 Env of isolate 92WR009 (HIV-1)
[24] = target: HIV-1 Env of isolate MG RM-D-001 (subtype D) (HIV-1)
[25] = target: HIV-1 Env of isolate MGRM-C-020 (pseudovirus) (HIV-1 isolate MGRM-C-020, subtype C)
[26] = target: HIV-1 JR-CSF Env N134A (HIV-1 (isolate JR-CSF)) (UniProt P20871)
[27] = target: HIV-1 Env of isolate MGRM-C-007 (pseudovirus) (HIV-1 isolate MGRM-C-007, subtype C)
[28] = target: HIV-1 Env of isolate MG RM-D-018 (subtype D) (HIV-1)
[29] = target: HIV-1 Env of isolate MGRM-C-027 (pseudovirus) (HIV-1 isolate MGRM-C-027, subtype C)
[30] = target: HIV-1 Env of isolate MG RM-D-005 (subtype D) (HIV-1)
[31] = target: HIV-1 TRJ04551.58 Env (pseudovirus) (HIV-1)
[32] = target: HIV-1 Env of isolate MGRM-F1-012 (subtype F) (HIV-1)
[33] = target: HIV-1 JR-CSF Env T162A (HIV-1 (isolate JR-CSF)) (UniProt P20871)
[34] = target: HIV-1 Env of isolate MGRM-C-026 (HIV-1)
[35] = target: HIV-1 APV6 envelope glycoprotein (Env) on pseudovirus (HIV-1)
[36] = target: HIV-1 Env of isolate 98CN009 (HIV-1)
[37] = target: HIV-1 MGRM-A-010 envelope glycoprotein (Env) on pseudovirus (HIV-1)
[38] = target: HIV-1 MGRM-C-027 envelope glycoprotein (Env) on pseudovirus (HIV-1)

Row | Substance | IC50 (µg/ml), pseudovirus neutralization [1] | IC50 [2] | IC50 (µg/ml), pseudovirus neutralization [3] | IC50 (µg/ml), pseudovirus neutralization [4] | IC50 (µg/ml), pseudovirus neutralization [5] | IC50 (µg/ml), pseudovirus neutralization [6] | IC50 (µg/ml), pseudovirus neutralization [7] | IC50 (µg/ml), pseudovirus neutralization [8] | IC50 [9] | IC50 (µg/ml), pseudovirus neutralization [10] | IC50 (µg/ml), pseudovirus neutralization [11] | IC50 [12] | IC50 [13] | IC50 (µg/ml), pseudovirus neutralization [14] | IC50 (µg/ml), pseudovirus neutralization [15] | IC50 (µg/ml), pseudovirus neutralization [16] | IC50 (µg/ml), pseudovirus neutralization [17] | IC50 (µg/ml), pseudovirus neutralization [18] | also measured
1 | 2G12 (antibody) | 0.12 µg/mL | > 50 µg/mL | > 50 µg/mL | 17 µg/mL | 45.2 µg/mL | > 50 µg/mL | > 50 µg/mL | > 50 µg/mL | > 50 µg/mL | > 50 µg/mL | > 50 µg/mL | > 50 µg/mL | > 50 µg/mL | > 50 µg/mL | > 50 µg/mL | > 50 µg/mL | 0.48 µg/mL | > 50 µg/mL | 
2 | 1443_C16 (PG16) (TCN-116) (antibody) | 0.004 µg/mL | 2.55 µg/mL | > 50 µg/mL | 0.004 µg/mL | 0.01 µg/mL | > 50 µg/mL | > 50 µg/mL | 2.55 µg/mL | > 50 µg/mL | > 50 µg/mL | 0.02 µg/mL | 0.25 µg/mL | 0.02 µg/mL | 4.35 µg/mL | 1.12 µg/mL | 3.83 µg/mL | 0.28 µg/mL | 0.04 µg/mL | 
3 | 4E10 (antibody) | 3.9 µg/mL | 16.4 µg/mL | 7.59 µg/mL | 14.4 µg/mL | 8.84 µg/mL | 5.3 µg/mL | 1.28 µg/mL | 4.7 µg/mL | 2.48 µg/mL | 0.53 µg/mL | 3.6 µg/mL | 1.26 µg/mL | 2.02 µg/mL | 0.66 µg/mL | 7.61 µg/mL | 15.5 µg/mL | 4.54 µg/mL | 3.14 µg/mL | 
4 | VRC01 (antibody) |  |  |  |  |  |  |  |  |  |  |  |  |  |  |  |  |  |  | IC50 [19]: 0.722 µg/mL; IC50 [20]: 0.066 µg/mL
5 | PGT-122 (antibody) |  |  |  |  |  |  |  |  |  |  |  |  |  |  |  |  |  |  | IC50 neutralization [4]: 1.68 µg/mL; IC50 (µg/mL), pseudovirus neutralization [21]: 0.003 µg/mL; IC50 (µg/mL), pseudovirus neutralization [22]: > 50 µg/mL; IC50 (µg/mL), pseudovirus neutralization [23]: 42.4 µg/mL; IC50 neutralization [17]: 0.0072 µg/mL
6 | 5145_B14 (PGT-127) (antibody) |  |  |  |  |  |  |  |  |  |  |  |  |  |  |  |  |  |  | IC50 (µg/mL), pseudovirus neutralization [24]: 2.23 µg/mL; IC50 (µg/mL) neutralization [25]: > 50 µg/mL; Fold IC50 increase relative to wild-type [26]: 1 fold; IC50 (µg/mL) neutralization [27]: > 50 µg/mL; IC50 (µg/mL), pseudovirus neutralization [28]: 0.021 µg/mL; IC50 (µg/mL) neutralization [29]: > 50 µg/mL; IC50 (µg/mL), pseudovirus neutralization [30]: 6.02 µg/mL; IC50, pseudovirus neutralization [31]: 0.063 µg/mL; IC50 (µg/mL), pseudovirus neutralization [32]: > 50 µg/mL; Fold IC50 increase relative to wild-type [33]: 1.1 fold
7 | 4838_L06 (PGT-121) (antibody) |  |  |  |  |  |  |  |  |  |  |  |  |  |  |  |  |  |  | IC50 (µg/mL), pseudovirus neutralization [24]: 0.615 µg/mL; IC50 (µg/mL) neutralization [25]: > 50 µg/mL; IC50 (µg/mL) neutralization [27]: 0.196 µg/mL; IC50 (µg/mL), pseudovirus neutralization [28]: 0.005 µg/mL; IC50 (µg/mL) neutralization [29]: 0.011 µg/mL; IC50 (µg/mL), pseudovirus neutralization [30]: > 50 µg/mL; IC50, pseudovirus neutralization [31]: 7.09 µg/mL; IC50 (µg/mL), pseudovirus neutralization [32]: 1.91 µg/mL
8 | PGT-121 (antibody) |  |  |  |  |  |  |  |  |  |  |  |  |  |  |  |  |  |  | Primary Neutralization Index (B cell culture well 4838 L06) [34]: 996; Primary Neutralization Index (B cell culture well 4873 E03) [34]: 371; IC50 neutralization [4]: 2.61 µg/mL; IC50 (µg/mL), pseudovirus neutralization [21]: 0.003 µg/mL; IC50 (µg/mL), pseudovirus neutralization [22]: > 50 µg/mL; IC50 (µg/mL), pseudovirus neutralization [23]: 1.74 µg/mL; IC50 neutralization [17]: 0.0063 µg/mL
9 | 1496_C09 (PG9) (TCN-109) (antibody) |  | 2.98 µg/mL |  |  |  |  | 4.39 µg/mL | 1.27 µg/mL | 0.64 µg/mL |  | 0.03 µg/mL | 0.03 µg/mL |  | 4.55 µg/mL | 0.58 µg/mL | 1.19 µg/mL | 0.08 µg/mL |  | IC50 (ug/ml), neutralizing activity [35]: 0.214 µg/mL; IC50 neutralization [35]: 0.214 µg/mL; IC80, neutralization [35]: 1.13 µg/mL; IC90, neutralization [35]: 3.21 µg/mL; IC95, neutralization [35]: 9.65 µg/mL; IC50 neutralization [4]: 0.0375 µg/mL; IC50 [21]: 0.006 µg/mL; IC50, pseudovirus neutralization [36]: 0.371 µg/mL; IC50 [22]: 3.6 µg/mL; IC50 (ug/ml), neutralizing activity [37]: 0.0375 µg/mL; IC50 neutralization [37]: 0.0375 µg/mL; IC80, neutralization [37]: 0.121 µg/mL; IC90, neutralization [37]: 0.242 µg/mL; IC95, neutralization [37]: 0.456 µg/mL; IC50 (ug/ml), neutralizing activity [38]: 2.45 µg/mL; IC50 neutralization [38]: 2.45 µg/mL; IC50 neutralization [17]: 0.161 µg/mL
10 | 1495_C14 (PGC14) (antibody) | > 50 µg/mL | > 50 µg/mL | > 50 µg/mL | > 50 µg/mL | > 50 µg/mL | > 50 µg/mL | > 50 µg/mL | > 50 µg/mL | > 50 µg/mL | > 50 µg/mL | > 50 µg/mL | 19 µg/mL | 25 µg/mL | > 50 µg/mL | > 50 µg/mL | 42 µg/mL | 46 µg/mL | > 50 µg/mL | 
11 | b12 (antibody) | 1.39 µg/mL | 2.66 µg/mL | > 50 µg/mL | > 50 µg/mL | > 50 µg/mL | > 50 µg/mL | 0.78 µg/mL | > 50 µg/mL | > 50 µg/mL | > 50 µg/mL | 5.92 µg/mL | 21.4 µg/mL | 7.64 µg/mL | > 50 µg/mL | > 50 µg/mL | > 50 µg/mL | > 50 µg/mL | > 50 µg/mL | 
12 | PGV04 (antibody) |  |  |  |  |  |  |  |  |  |  |  |  |  |  |  |  |  |  | IC50 [21]: 0.014 µg/mL; IC50, pseudovirus neutralization [36]: 0.0125 µg/mL; IC50 [22]: 4.46 µg/mL
13 | 4877_D15 (PGT-122) (antibody) |  |  |  |  |  |  |  |  |  |  |  |  |  |  |  |  |  |  | IC50 (µg/mL), pseudovirus neutralization [24]: 1.13 µg/mL; IC50 (µg/mL) neutralization [25]: 14 µg/mL; IC50 (ug/ml), neutralizing activity [35]: 0.0851 µg/mL; IC50 (µg/mL) neutralization [27]: 3.35 µg/mL; IC50 (µg/mL), pseudovirus neutralization [28]: 0.007 µg/mL; IC50 (µg/mL) neutralization [29]: 0.039 µg/mL; IC50 (µg/mL), pseudovirus neutralization [30]: > 50 µg/mL; IC50, pseudovirus neutralization [31]: > 50 µg/mL; IC50 (µg/mL), pseudovirus neutralization [32]: > 50 µg/mL; IC50 (ug/ml), neutralizing activity [37]: 1.68 µg/mL; IC50 (ug/ml), neutralizing activity [38]: 0.0388 µg/mL
14 | 2F5 (antibody) | 4.05 µg/mL | > 50 µg/mL | > 50 µg/mL | 20.8 µg/mL | 3.24 µg/mL | > 50 µg/mL | > 50 µg/mL | > 50 µg/mL | > 50 µg/mL | 0.1 µg/mL | > 50 µg/mL | > 50 µg/mL | > 50 µg/mL | 0.59 µg/mL | 21.5 µg/mL | > 50 µg/mL | 3.36 µg/mL | 7.49 µg/mL | 
